Results taken from patent publication US20250195685A1 (CAPSTAN THERAPEUTICS, published 2025).

Tests used:
[1] = biological target: T1, human CD8αα homodimer, recombinant protein (Acro Biosystems) (human, UniProt P01732 22-182); experiment: BLI kinetics, Fab, 37 °C
T1 construct: also called CD8αα antigen; biotinylated CD8α recombinant protein (CDA-H82E3)
Experimental: (§1) Biolayer interferometry kinetic assays were performed using a GatorBio Gator Plus BLI system. Kinetic buffer containing PBS plus 0.1% Tween 20 and 0.2% BSA was used for calculating the baseline. To measure the binding kinetics of anti-CD8α antibody fragment (Fab), streptavidin-immobilized SA-XT sensors (#160029, Gator Bio) were prehydrated in the kinetic buffer and loaded with […] biotinylated CD8α recombinant protein (CDA-H82E3, Acro Biosystems) at a spin speed of 400 rpm to a threshold response of 10 nm. The sensors were then incubated in the kinetic buffer for 300 s to acquire a baseline measurement prior to each association. […] The antigen-loaded sensors were incubated in the diluted solutions to capture Fab fragments for 300 s to record the association phase. Sensors were finally incubated in the kinetic buffer for 900 s to record the dissociation phase. The spin speed for all steps except the antigen loading step was 1000 rpm. The temperature of the performed assays was either 30° C. or 37° C. during the association and dissociation phases. Sensor data were baseline subtracted, and global curve fitting of the kinetic data from six different analyte concentrations at a 1:1 monovalent binding model was performed using GatorOne software (version v2.10) to determine kinetic rate constants (kₒₙ and koff) and equilibrium dissociation constants (KD) of the analyzed antibodies.
(§2) The binding kinetics of CBD1033 Fab and its parental CBD1017ch Fab against human CD8αα homodimer, human CD8αβ heterodimer, and cynomolgus macaque CD8ααhomodimer were assessed following the same method in BLI evaluation of humanized Fab variants. For evaluating the binding kinetics against cynomolgus macaque CD8αβ heterodimer protein, the antigen protein was directly coupled onto amine-reactive biosensor tips (Gator Bio) following the manufacturer protocol. Briefly, the sensors were activated for 300 s with a mixture of 1-ethyl-3-(3-dimethylaminopropyl)carbodiimide hydrochloride (EDC) (ThermoFisher Scientific) and 10 mM N-Hydroxysulfosuccinimide sodium salt (sulfo-NHS) (Sigma-Aldrich) in water.

[2] = biological target: T2, human CD8αβ heterodimer, recombinant protein (human, UniProt P01732 22-182; P10966 22-170, limits assumed); experiment: BLI kinetics, Fab, 37 °C
Experimental: as §1, §2

[3] = biological target: T1, human CD8αα homodimer, recombinant …; experiment: BLI kinetic sensorgram, 1:1 global fit, 30 °C
Experimental: (§3) The global fitting was performed with a 1:1 fitting model using GatorOne software as described below.
as §1

[4] = biological target: T3, cynomolgus macaque CD8αα homodimer, recombinant protein (cynomolgus macaque); experiment: BLI kinetics, Fab, 37 °C as printed in the table
T3 construct: also called cynomolgus CD8αα homodimer
Experimental: as §1, §2

[5] = biological target: T1, human CD8αα homodimer, recombinant …; experiment: BLI kinetic sensorgram, 1:1 global fit, 37 °C [CONT'ED]
Experimental: as §3, §1

[6] = biological target: T4, cynomolgus macaque CD8αβ heterodimer, recombinant protein (cynomolgus macaque); experiment: BLI kinetics, Fab, antigen amine-coupled to the sensor, 30 °C
T4 construct: In BLI coupled directly to amine-reactive sensor tips; also called cynomolgus CD8αβ heterodimer
Experimental: The binding kinetics of CBD1033 Fab and its parental CBD1017ch Fab against human CD8αα homodimer, human CD8αβ heterodimer, and cynomolgus macaque CD8ααhomodimer were assessed following the same method in BLI evaluation of humanized Fab variants. For evaluating the binding kinetics against cynomolgus macaque CD8αβ heterodimer protein, the antigen protein was directly coupled onto amine-reactive biosensor tips (Gator Bio) following the manufacturer protocol. Briefly, the sensors were activated for 300 s with a mixture of 1-ethyl-3-(3-dimethylaminopropyl)carbodiimide hydrochloride (EDC) (ThermoFisher Scientific) and 10 mM N-Hydroxysulfosuccinimide sodium salt (sulfo-NHS) (Sigma-Aldrich) in water. The cynomolgus macaque CD8αβ protein diluted to […] in 10 mM sodium acetate buffer, pH 6.0, was allowed to be covalently captured for 300 s to an approximate threshold of 5 nm, and the sensors were subsequently deactivated with 1 M ethanolamine (ETA) (Sigma-Aldrich) solution, pH 8.5, for 300 s. The sensors were then rinsed in the kinetic buffer for 600 s. The rinse step was repeated for an additional 120 s for baseline calculation prior to the measurements of the binding kinetics. The antibody fragment was diluted into kinetic buffer via 3-fold dilution at concentrations ranging from 1000 nM to 1.37 nM. As above, the antigen-captured sensors were incubated in the diluted solutions to capture the Fab fragments for 1200 s to record the association phase. Sensors were subsequently incubated in the kinetic buffer for 1200 s to record the dissociation phase. The shaking speed for all steps was 1000 rpm and the temperature of the performed assays were at 30° C. The kinetic parameters were determined with 1:1 monovalent (Langmuir) binding model using the previous method.

[7] = biological target: T1, human CD8αα homodimer, recombinant …; experiment: BLI kinetic assay (told in the description; antigen not given)
Experimental: as §1, §2

[8] = biological target: T2, human CD8αβ heterodimer, recombinant …; experiment: as above
Experimental: as §1, §2

[9] = biological target: T3, cynomolgus macaque CD8αα homodimer, …; experiment: as above
Experimental: as §1, §2

[10] = biological target: T4, cynomolgus macaque CD8αβ heterodimer, …; experiment: as above
Experimental: as §1, §2

[11] = biological target: T1, human CD8αα homodimer, recombinant …; experiment: BLI kinetic rate analysis, Fab fragment (temperature not given)
Experimental: as §1

[12] = biological target: T1, human CD8αα homodimer, recombinant …; experiment: BLI kinetics, F(ab) on biotinylated CD8α (SA-XT sensor), 1:1 fit, 30 °C
Experimental: as §1

[13] = biological target: T1, human CD8αα homodimer, recombinant …; experiment: BLI kinetics, F(ab) on biotinylated CD8α (SA-XT sensor), 1:1 fit, 37 °C [CONT'ED]
Experimental: as §1

[14] = biological target: T3, cynomolgus macaque CD8αα homodimer, …; experiment: BLI kinetic sensorgram, 1:1 global fit (legend: 30 °C; FIG. 2I prints 37 °C for the same constants)
Experimental: as §1, §2

T1 sequence (P01732 22-182 limits assumed): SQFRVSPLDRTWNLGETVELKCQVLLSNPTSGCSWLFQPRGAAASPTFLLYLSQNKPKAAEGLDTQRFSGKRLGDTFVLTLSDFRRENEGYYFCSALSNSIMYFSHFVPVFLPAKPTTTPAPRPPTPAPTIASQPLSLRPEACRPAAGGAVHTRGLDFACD
T2 sequence (P01732 22-182 limits assumed, chain 1 of 2): as the sequence (P01732 22-182 limits assumed) above
T2 sequence (P10966 22-170 limits assumed, chain 2 of 2): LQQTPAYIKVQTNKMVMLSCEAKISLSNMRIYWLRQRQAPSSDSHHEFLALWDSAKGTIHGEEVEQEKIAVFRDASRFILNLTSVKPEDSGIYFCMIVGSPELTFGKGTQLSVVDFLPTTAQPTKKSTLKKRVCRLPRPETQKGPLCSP

B1: CBD1033 Fab (h1017-H2 / h1017-L2) (Fab, V domains shown)
VH: QVQLVQSGAEVKKPGASVKVSCKASRYTFTDYNLHWVRQAPGQGLEWMGFIYPYNGGTGYAQKFQGRVTMTVDTSTSTAYMELSSLRSEDTAVYYCARDHRYNEGVSFDYWGQGTTVTVSS
VL: DIQLTQSPSSLSASVGDRATITCRASESVDGFGNSFMNWYQQKPGKAPKLLIYLASNLESGVPSRFSGSGSGTDFTLTISSVQPEDFATYYCQQNNEDPYTFGQGTKLEIK
notes: Expressed as F(ab) fragment; also called CBD1033 Fab molecule
B1 was tested, and the Kd [1] was 5.5 nM, the koff [1] was 0.000194 s⁻¹ and the kon [1] was 35400 M⁻¹ s⁻¹. It also gave a Kd [2] of 26.2 nM, a koff [2] of 0.000653 s⁻¹ and a kon [2] of 25000 M⁻¹ s⁻¹. The Kd [3] was 3.25 nM, the koff [3] was 0.000145 s⁻¹ and the kon [3] was 44700 M⁻¹ s⁻¹. It also gave a Kd [4] of 10.4 nM, a koff [4] of 0.000264 s⁻¹ and a kon [4] of 25400 M⁻¹ s⁻¹. It also gave a Kd [5] of 5.5 nM, a koff [5] of 0.000194 s⁻¹ and a kon [5] of 35400 M⁻¹ s⁻¹. It also gave a Kd [6] of 119 nM, a koff [6] of 0.00199 s⁻¹ and a kon [6] of 16700 M⁻¹ s⁻¹. The “fold weaker binding affinity than CBD1017ch F(ab)” value [7] was 5 fold, the “fold weaker binding affinity than CBD1017ch F(ab)” value [8] was 5 fold and the “fold weaker binding affinity than CBD1017ch F(ab)” value [9] was 5 fold. The “fold weaker binding affinity than CBD1017ch F(ab)” value [10] was 5 fold, the Kd [11] was 5.5 nM and the koff [11] was 0.000195 s⁻¹. It also gave a kon [11] of 35400 M⁻¹ s⁻¹, a Kd [12] of 3.25 nM and a koff [12] of 0.000145 s⁻¹. For the same binder, the kon [12] was 44700 M⁻¹ s⁻¹, the Kd [13] was 5.5 nM and the koff [13] was 0.000194 s⁻¹. It also gave a kon [13] of 35400 M⁻¹ s⁻¹, a Kd [14] of 10.4 nM and a koff [14] of 0.000264 s⁻¹. The kon [14] was 25400 M⁻¹ s⁻¹.
